± gives the standard deviation.

The series in a line: protein stability index of a GFP-peptide fusion (GPS, HEK-293T) (PSI 1-6); higher = more stable. The following applies: c terminus: a fixed tail appended.
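Also: 24-mer peptide tiles fused after GFP, lentivirally expressed, FACS-sorted into six equal bins by GFP/DsRed ratio, decoded by Illumina sequencing, PSI is the read-weighted mean bin number.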

With EEEEERWEWSPAGLQSYQQALLRI [SERTAD3], the protein stability index worked out at 3.46 ± 0.29 (treatment: DMSO) and 3.43 ± 0.17 (treatment: MLN4924 1 uM, 8 h).

Turning to EEIVFNLTNNVDLDNTKKKMEIYQ [MNAT1], the protein stability index was 4.05 ± 0.39 (treatment: DMSO) and 4.02 ± 0.35 (treatment: MLN4924 1 uM, 8 h).

Consider EEPELVFTLGDCDVIQALDLSVPL [FKBP8], for which the protein stability index was determined as 3.66 ± 0.28 (treatment: DMSO) and 3.48 ± 0.41 (treatment: MLN4924 1 uM, 8 h).

In the case of EETIASLQMEVCRLKKEEEDRIVT [CEP70], the protein stability index runs as follows: (treatment: DMSO) 4.65 ± 0.072; (treatment: MLN4924 1 uM, 8 h) 4.8 ± 0.32.

As to EEVDTGAVNLIESGACGAFVHGLE [INTS4], the protein stability index reads like this: (treatment: DMSO) 4.34 ± 0.39; (treatment: MLN4924 1 uM, 8 h) 4.85 ± 0.46.

Regarding EFIMPDSAVVGDVLVLTKPLGTQV [SEPHS2], the protein stability index runs as follows: (treatment: DMSO) 2.3 ± 0.31; (treatment: MLN4924 1 uM, 8 h) 2.54 ± 0.32.

As for EFLRVQEERILHQQVKCIITEEKV [VPS39], the protein stability index is, setting by setting: (treatment: DMSO) 3.08 ± 0.26; (treatment: MLN4924 1 uM, 8 h) 2.92 ± 0.3.

Turning to EGCELPDLPSSLLLPEDMALRNLP [SMG5], the protein stability index by setting is: (treatment: DMSO) 4.4 ± 0.1; (treatment: MLN4924 1 uM, 8 h) 4.49 ± 0.15.

EGSADTEDRKLPAPGADVKVHRAR [EHMT1]: the protein stability index was determined as 5.27 ± 0.44 (treatment: DMSO) and 5.41 ± 0.17 (treatment: MLN4924 1 uM, 8 h).

Consider EGTLGYAIGGTYLGPAFRGLKGRT [SPSB2], for which the protein stability index runs as follows: (treatment: DMSO) 3.14 ± 0.1; (treatment: MLN4924 1 uM, 8 h) 3.06 ± 0.32.

Consider EIIKVTEQLIEAINNGDFEAYTKI [CAMK2D], for which the protein stability index by setting is: (treatment: DMSO) 2.47 ± 0.12; (treatment: MLN4924 1 uM, 8 h) 2.63 ± 0.29.

Consider EKAVANFDRTEWVQIRRLEAAGES [ZC2HC1C], for which the protein stability index reads like this: (treatment: DMSO) 4.49 ± 0.12; (treatment: MLN4924 1 uM, 8 h) 4.48 ± 0.26.

Take EKDNSRRMLTDKEREMAEIRDQMQ [LMNB1]: the protein stability index runs as follows: (treatment: DMSO) 5.3 ± 0.12; (treatment: MLN4924 1 uM, 8 h) 5.32 ± 0.13.

Turning to EKGRALQIRDWRGGRLENQKPRGL [ZSWIM9], the protein stability index runs as follows: (treatment: DMSO) 4 ± 0.34; (treatment: MLN4924 1 uM, 8 h) 4.2 ± 0.35.

EKSHQVLAQLLDTLLAIGTKLPEN [INTS4] yielded a protein stability index (treatment: DMSO) of 3.14 ± 0.82 and a protein stability index (treatment: MLN4924 1 uM, 8 h) of 3.2 ± 0.86.

In the case of EKYKTQIDHYVGIARDQTKSIVEK [RTN3], the protein stability index reads like this: (treatment: DMSO) 4.07 ± 0.2; (treatment: MLN4924 1 uM, 8 h) 4.15 ± 0.31.

ELAFAEDLVLDEEGARAAGLGELG [ESRRA] gave a protein stability index (treatment: DMSO) of 5.24 ± 0.2 and a protein stability index (treatment: MLN4924 1 uM, 8 h) of 5.19 ± 0.27.

As to ELALFQMSVLWLEHDRETRMQYAP [KLHL14], the protein stability index came to 2.44 ± 0.58 (treatment: DMSO) and 2.46 ± 0.34 (treatment: MLN4924 1 uM, 8 h).

On to ELEMIGFIENNVSKLSLLLNDISR [TRIP13], for which the protein stability index stood at 2.2 ± 0.31 (treatment: DMSO) and 2.63 ± 0.41 (treatment: MLN4924 1 uM, 8 h).

With ELLSAPPPDLGAQRRHGWNPKDCS [SPSB2], the protein stability index is, setting by setting: (treatment: DMSO) 3.72 ± 0.14; (treatment: MLN4924 1 uM, 8 h) 3.48 ± 0.25.

Regarding ELPLLTPCSKAVMSQALKATFSGF [ETS2], the protein stability index stood at 2.62 ± 0.28 (treatment: DMSO) and 2.06 ± 0.65 (treatment: MLN4924 1 uM, 8 h).

In the case of ENEEMEQPMQNGEEDRPLGGGEGH [BEX3], the protein stability index was determined as 5.42 ± 0.15 (treatment: DMSO) and 5.41 ± 0.2 (treatment: MLN4924 1 uM, 8 h).

ENILSFMSYDEISQLRLVCKRMDL [FBXO28]: the protein stability index is, setting by setting: (treatment: DMSO) 2.32 ± 0.21; (treatment: MLN4924 1 uM, 8 h) 2.35 ± 0.28.

For the sequence ENNMLQPETHIFTAPEEVPKVSDQ [DMRTC1], the protein stability index amounted to 5.57 ± 0.18 (treatment: DMSO) and 5.56 ± 0.21 (treatment: MLN4924 1 uM, 8 h).

Regarding ENWVCLSCYQVYCGRYINGHMLQH [HDAC6], the protein stability index (treatment: DMSO) amounted to 2.33 ± 0.76 and the protein stability index (treatment: MLN4924 1 uM, 8 h) turned out to be 2.54 ± 0.46.

Consider EPDALDDSLTSLQWLQEFSILNAK [FOXJ1], for which the protein stability index was determined as 3.75 ± 0.21 (treatment: DMSO) and 3.65 ± 0.11 (treatment: MLN4924 1 uM, 8 h).

Regarding EPGYIDSEIGTSDQIVPEYQEDSD [TRIB1], the protein stability index by setting is: (treatment: DMSO) 5.69 ± 0.29; (treatment: MLN4924 1 uM, 8 h) 5.62 ± 0.19.

EPMRDQVARTHLTEDTPKVNADIE [NSDHL]: the protein stability index turned out to be 5.32 ± 0.34 (treatment: DMSO) and 5.56 ± 0.075 (treatment: MLN4924 1 uM, 8 h).

The sequence EQASAFQEQEIDGKSLLLMTRNDV [SAMD13] showed a protein stability index (treatment: DMSO) of 4.74 ± 0.12 and a protein stability index (treatment: MLN4924 1 uM, 8 h) of 4.78 ± 0.14.

For the origin of these results see the supplement of paper PMC10567573.
